According to patent publication US20230236179A1:

Experiments:
[1] = molecular target: human interleukin-1 beta (IL-1β) protein standard (R&D Systems 201-LB-005) (human) (UniProt P01584); test: conventional Simoa sandwich (capture beads + detector m2), 150 pM SβG/5 min; IL-1B at 1.563 fM
[2] = molecular target: human interleukin-1 beta (IL-1β) protein standard (R&D Systems 201-LB-005) (human) (UniProt P01584); test: conventional Simoa sandwich (capture beads + detector m2), 300 pM SβG/15 min; IL-1B at 0.024 fM
[3] = molecular target: human interleukin-1 beta (IL-1β) protein standard (R&D Systems 201-LB-005) (human) (UniProt P01584); test: conventional Simoa sandwich (capture beads + detector m2), 150 pM SβG/5 min; IL-1B at 25 fM
[4] = molecular target: human interleukin-1 beta (IL-1β) protein standard (R&D Systems 201-LB-005) (human) (UniProt P01584); test: conventional Simoa sandwich (capture beads + detector m2), 300 pM SβG/15 min; IL-1B at 0.391 fM
[5] = molecular target: human interleukin-1 beta (IL-1β) protein standard (R&D Systems 201-LB-005) (human) (UniProt P01584); test: dSimoa sandwich (capture beads + detector m2), 300 pM streptavidin-DNA/15 min; IL-1B at 1 fM
[6] = molecular target: human interleukin-1 beta (IL-1β) protein standard (R&D Systems 201-LB-005) (human) (UniProt P01584); test: dSimoa sandwich (capture beads + detector m2), 300 pM streptavidin-DNA/15 min; IL-1B at 0.05 fM
[7] = molecular target: human interleukin-1 beta (IL-1β) protein standard (R&D Systems 201-LB-005) (human) (UniProt P01584); test: conventional Simoa sandwich (capture beads + detector m2), 300 pM SβG/15 min; IL-1B at 0.098 fM
[8] = molecular target: human interleukin-1 beta (IL-1β) protein standard (R&D Systems 201-LB-005) (human) (UniProt P01584); test: conventional Simoa sandwich (capture beads + detector m2), 150 pM SβG/5 min; IL-1B at 100 fM
[9] = molecular target: human interleukin-1 beta (IL-1β) protein standard (R&D Systems 201-LB-005) (human) (UniProt P01584); test: dSimoa sandwich (capture beads + detector m2), 300 pM streptavidin-DNA/15 min; IL-1B at 100 fM
[10] = molecular target: human interleukin-1 beta (IL-1β) protein standard (R&D Systems 201-LB-005) (human) (UniProt P01584); test: conventional Simoa sandwich (capture beads + detector m2), 150 pM SβG/5 min; IL-1B at 0.391 fM
[11] = molecular target: human interleukin-1 beta (IL-1β) protein standard (R&D Systems 201-LB-005) (human) (UniProt P01584); test: conventional Simoa sandwich (capture beads + detector m2), 300 pM SβG/15 min; IL-1B at 25 fM
[12] = molecular target: human interleukin-1 beta (IL-1β) protein standard (R&D Systems 201-LB-005) (human) (UniProt P01584); test: dSimoa sandwich (capture beads + detector m2), 300 pM streptavidin-DNA/15 min; IL-1B at 0.1 fM
[13] = molecular target: human interleukin-1 beta (IL-1β) protein standard (R&D Systems 201-LB-005) (human) (UniProt P01584); test: conventional Simoa sandwich (capture beads + detector m2), 300 pM SβG/15 min; IL-1B at 1.563 fM
[14] = molecular target: human interleukin-1 beta (IL-1β) protein standard (R&D Systems 201-LB-005) (human) (UniProt P01584); test: dSimoa sandwich (capture beads + detector m2), 300 pM streptavidin-DNA/15 min; IL-1B at 0.01 fM
[15] = molecular target: human interleukin-1 beta (IL-1β) protein standard (R&D Systems 201-LB-005) (human) (UniProt P01584); test: conventional Simoa sandwich (capture beads + detector m2), 300 pM SβG/15 min; IL-1B at 6.25 fM
[16] = molecular target: human interleukin-1 beta (IL-1β) protein standard (R&D Systems 201-LB-005) (human) (UniProt P01584); test: conventional Simoa sandwich (capture beads + detector m2), 300 pM SβG/15 min; IL-1B at 100 fM
[17] = molecular target: human interleukin-1 beta (IL-1β) protein standard (R&D Systems 201-LB-005) (human) (UniProt P01584); test: dSimoa sandwich (capture beads + detector m2), 300 pM streptavidin-DNA/15 min; IL-1B at 0.5 fM
[18] = molecular target: human interleukin-1 beta (IL-1β) protein standard (R&D Systems 201-LB-005) (human) (UniProt P01584); test: conventional Simoa sandwich (capture beads + detector m2), 150 pM SβG/5 min; IL-1B at 0.098 fM
[19] = molecular target: human interleukin-1 beta (IL-1β) protein standard (R&D Systems 201-LB-005) (human) (UniProt P01584); test: dSimoa sandwich (capture beads + detector m2), 300 pM streptavidin-DNA/15 min; IL-1B at 10 fM

Chain of UniProt P01584 (P01584 117-269 limits assumed): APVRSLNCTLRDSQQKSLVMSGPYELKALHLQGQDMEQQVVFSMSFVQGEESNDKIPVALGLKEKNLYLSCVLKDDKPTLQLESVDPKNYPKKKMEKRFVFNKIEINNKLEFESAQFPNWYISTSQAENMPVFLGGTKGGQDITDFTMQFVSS

With “IL-1β capture antibody (Biolegend 508202)” the average AEB [1] was 0.0222 AEB, the average AEB [2] was 0.0428 AEB and the average AEB [3] was 0.199 AEB. It also gave an average AEB [4] of 0.029 AEB, an average AMB [5] of 0.0133 AMB and an average AMB [6] of 0.0054 AMB. It also gave an average AEB [7] of 0.0271 AEB, an average AEB [8] of 0.721 AEB and an average AMB [9] of 0.822 AMB. It also gave an average AEB [10] of 0.0135 AEB, an average AEB [11] of 0.221 AEB and an average AMB [12] of 0.0051 AMB. The average AEB [13] was 0.0379 AEB, the average AMB [14] was 0.0044 AMB and the average AEB [15] was 0.0714 AEB. It also gave an average AEB [16] of 0.767 AEB, an average AMB [17] of 0.0114 AMB and an average AEB [18] of 0.0108 AEB. It also gave an average AMB [19] of 0.0898 AMB.
